Reference: patent US20250243271A1 (ALCEA THERAPEUTICS, published 2025)

Experiments:
[1] = target: T1, keyhole limpet hemocyanin; test: polyreactivity assay, reactivity normalized to the highest value for each probe
T1 construct: Probe of the polyreactivity assay; also called KLH
Protocol: (§1) Polyreactivity assays. The non-specific reactivity of H07-Lib3 was evaluated towards cardiolipin, keyhole limpet hemocyanin (KLH), lipopolysaccharides (LPS), single-stranded DNA (ssDNA), double-stranded DNA (dsDNA), insulin, and bovine serum albumin (BSA). Additional therapeutic antibodies (bococizumab, efalizumab, gantenerumab, ibalizumab, lenzilumab, and panitumumab) were included in experiments for comparison. The reactivity percentage of each antibody was normalized to the highest reactivity value for each probe. Threshold for acceptable polyreactivity was set to 30% for all probes.

insulin = target: T2, insulin; test: as above
T2 construct: Probe of the polyreactivity assay
Protocol: as §1

bovine serum albumin = target: T3, bovine serum albumin (bovine, UniProt P02769 25-607); test: as above
T3 construct: Probe of the polyreactivity assay; also called BSA
T3 sequence (P02769 25-607 limits assumed): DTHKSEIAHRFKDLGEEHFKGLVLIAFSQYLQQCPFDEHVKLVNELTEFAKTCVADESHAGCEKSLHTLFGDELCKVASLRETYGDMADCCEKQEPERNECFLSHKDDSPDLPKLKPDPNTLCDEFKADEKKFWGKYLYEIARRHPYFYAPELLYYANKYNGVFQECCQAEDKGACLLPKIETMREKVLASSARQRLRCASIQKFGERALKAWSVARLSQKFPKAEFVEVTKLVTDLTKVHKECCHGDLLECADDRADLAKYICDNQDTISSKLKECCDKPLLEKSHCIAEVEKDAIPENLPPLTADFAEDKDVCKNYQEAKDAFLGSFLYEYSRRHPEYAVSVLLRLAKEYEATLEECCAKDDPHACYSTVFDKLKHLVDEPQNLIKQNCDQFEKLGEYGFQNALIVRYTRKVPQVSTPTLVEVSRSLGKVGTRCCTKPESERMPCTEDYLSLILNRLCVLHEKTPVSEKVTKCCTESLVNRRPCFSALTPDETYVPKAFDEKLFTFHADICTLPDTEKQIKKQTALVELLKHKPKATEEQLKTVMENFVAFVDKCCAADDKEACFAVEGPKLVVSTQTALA
Protocol: as §1

Recombinant human Notch4 [2] = target: T4, Recombinant human Notch4 (human, UniProt Q99466 24-1447, limits assumed); test: SPR, antibody captured by anti-human IgG Fc on HC30M chip, Notch4 as analyte
T4 construct: also called Notch4 analyte; Notch4 (antigen)
T4 sequence: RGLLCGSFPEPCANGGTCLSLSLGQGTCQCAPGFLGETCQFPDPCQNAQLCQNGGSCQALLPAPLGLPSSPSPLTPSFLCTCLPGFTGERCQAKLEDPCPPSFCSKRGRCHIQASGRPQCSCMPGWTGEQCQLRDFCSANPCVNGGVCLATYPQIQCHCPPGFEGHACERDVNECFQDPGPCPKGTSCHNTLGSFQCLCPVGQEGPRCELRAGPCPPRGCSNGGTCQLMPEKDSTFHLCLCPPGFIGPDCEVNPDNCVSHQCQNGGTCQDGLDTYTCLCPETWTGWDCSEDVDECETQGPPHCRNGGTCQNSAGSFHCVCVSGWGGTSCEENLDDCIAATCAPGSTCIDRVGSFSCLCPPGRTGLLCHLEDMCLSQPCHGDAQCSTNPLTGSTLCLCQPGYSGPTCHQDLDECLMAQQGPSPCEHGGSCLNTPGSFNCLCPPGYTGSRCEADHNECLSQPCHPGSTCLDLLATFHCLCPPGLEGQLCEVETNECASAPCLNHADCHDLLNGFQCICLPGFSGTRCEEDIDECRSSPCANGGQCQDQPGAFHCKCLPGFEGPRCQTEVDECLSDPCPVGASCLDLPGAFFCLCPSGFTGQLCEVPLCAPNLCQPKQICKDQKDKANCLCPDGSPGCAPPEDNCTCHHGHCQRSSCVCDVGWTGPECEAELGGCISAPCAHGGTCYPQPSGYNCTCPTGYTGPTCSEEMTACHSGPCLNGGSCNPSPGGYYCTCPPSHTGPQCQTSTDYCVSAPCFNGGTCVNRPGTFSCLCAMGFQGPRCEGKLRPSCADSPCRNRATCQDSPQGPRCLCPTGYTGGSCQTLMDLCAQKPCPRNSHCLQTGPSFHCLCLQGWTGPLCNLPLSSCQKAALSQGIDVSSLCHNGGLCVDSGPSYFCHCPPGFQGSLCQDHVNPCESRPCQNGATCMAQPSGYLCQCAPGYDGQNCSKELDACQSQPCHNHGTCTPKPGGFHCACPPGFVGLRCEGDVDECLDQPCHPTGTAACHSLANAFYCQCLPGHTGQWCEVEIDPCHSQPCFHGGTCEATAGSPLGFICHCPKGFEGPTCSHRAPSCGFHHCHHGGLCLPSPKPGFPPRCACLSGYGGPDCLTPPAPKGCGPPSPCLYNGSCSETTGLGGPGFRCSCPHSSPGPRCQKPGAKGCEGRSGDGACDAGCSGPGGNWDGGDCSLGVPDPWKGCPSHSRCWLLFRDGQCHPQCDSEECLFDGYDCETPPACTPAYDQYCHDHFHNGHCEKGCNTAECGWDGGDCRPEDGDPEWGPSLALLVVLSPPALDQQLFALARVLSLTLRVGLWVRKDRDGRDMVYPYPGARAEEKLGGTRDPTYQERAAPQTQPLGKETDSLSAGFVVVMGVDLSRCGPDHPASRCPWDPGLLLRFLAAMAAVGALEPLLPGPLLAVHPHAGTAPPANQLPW
Protocol: Binding kinetics measurements. Following expression and purification, clones were characterized using surface plasmon resonance (SPR) to determine binding kinetics and epitope binding activity. HC30M chips (polycarboxylate hydrogel surfaces having medium charge density and 30 nm coating thickness) were coated with anti-human Fc antibodies (unlabeled goat anti-human IgG Fc from Southern Biotech) to capture the candidate antibodies. Candidate antibodies were diluted to 10 μg/mL in HEPES-buffered saline Tris-EDTA (HBSTE)) and exposed to the surfaces for 15 minutes. After stabilizing baseline using HBSTE, Notch4 analytes were injected sequentially from a lowest concentration of 0.41 nM to a highest concentration of 300 nM. (Notch4 was diluted in HBSTE+0.5 mg/mL bovine serum albumin (BSA) to obtain a series of 3-fold dilutions.) To assess specificity, experiments were also run using Notch2 as an analyte in a single injection at 100 nM in HBSTE+0.5 mg/mL.

Recombinant human Notch4 [3] = target: T4, Recombinant human Notch4; test: SPR, antibody captured by anti-human polyclonal Fc antibodies on CM5 chip, Notch4 as analyte at 300 nM
Protocol: (§2) Binding kinetics measurements. H07-Lib3 binding kinetics were determined using surface plasmon resonance (SPR). CM5 chips were coated with anti-human polyclonal Fc antibodies (Southern Biotech) to capture candidate antibody. Candidate antibody was diluted in HEPES-buffered saline with 0.005% surfactant P20 (HBS-P) and exposed to the surfaces for 20 minutes. […] To assess specificity, experiment was also run using Notch3 as an analyte at 300 nM.

Recombinant human Notch4 [4] = target: T4, Recombinant human Notch4; test: SPR, antibody captured by anti-human polyclonal Fc antibodies on CM5 chip, Notch4 as analyte at 300 nM; Table 4 SPR, Notch4 as analyte
Protocol: as §2

B1: H07-Lib3-Pl1 (antibody, V domains shown)
VH: EVQLVESGGGLVQPGGSLRLSCAASGLPFSSYAMSWVRQAPGKGLELVASIGTAGDAYYPDSVKGRFTISRDNAKNSLYLQMNSLRAEDTAVYYCARVGPFWQGFAFDIWGQGTMVTVSS
VL: DIVMTQSPLSLPVTPGEPASISCRSSQSLLHSSGHNYLHWYLQKPGQSPQLLIYMTYNRASGVPDRFSGSGSGTDFTLKISRVEAEDVGVYYCLQTTHWPHTFGGGTKVEIK
notes: Tested as an antibody captured by anti-human Fc antibodies
normalized reactivity [1]: < 30%
normalized reactivity (insulin): < 30%
normalized reactivity (bovine serum albumin): < 30%
Kd (Recombinant human Notch4 [2]): 1.4 nM
koff (Recombinant human Notch4 [3]): 0.00164 s⁻¹
kon (Recombinant human Notch4 [3]): 98300 M⁻¹ s⁻¹
Kd (Recombinant human Notch4 [4]): 16.6 nM
